Reference: PMC10054347

What was measured:
Lysozyme C = Lysozyme C (Gallus gallus (Chicken), UniProt P00698 19-147); assay: bead-based affinity chromatography, fluorescence; PBS pH 7.4, room temperature, 1 h; EMSA 500 nM oligo + 200 µM protein, 5% agarose; bead assay with bead-immobilized protein, Alexa488 oligo 1-60 nM (lysozyme) o
Chymotrypsin (CTRC) = Chymotrypsin (CTRC) (bovine (pancreas), UniProt P00766 1-245); assay: as above
Cytochrome c = Cytochrome c (equine (heart), UniProt P00004 2-105); assay: as above
Chymotrypsin = Chymotrypsin (Bos taurus (Bovine), UniProt P00766;P00766;P00766 1-13;16-146;149-245); assay: pulldown; PBS pH 7.4, room temperature
BSA = BSA (Bos taurus (Bovine), UniProt P02769 25-607); assay: EMSA; PBS pH 7.4, room temperature
Sequence of BSA (P02769 25-607): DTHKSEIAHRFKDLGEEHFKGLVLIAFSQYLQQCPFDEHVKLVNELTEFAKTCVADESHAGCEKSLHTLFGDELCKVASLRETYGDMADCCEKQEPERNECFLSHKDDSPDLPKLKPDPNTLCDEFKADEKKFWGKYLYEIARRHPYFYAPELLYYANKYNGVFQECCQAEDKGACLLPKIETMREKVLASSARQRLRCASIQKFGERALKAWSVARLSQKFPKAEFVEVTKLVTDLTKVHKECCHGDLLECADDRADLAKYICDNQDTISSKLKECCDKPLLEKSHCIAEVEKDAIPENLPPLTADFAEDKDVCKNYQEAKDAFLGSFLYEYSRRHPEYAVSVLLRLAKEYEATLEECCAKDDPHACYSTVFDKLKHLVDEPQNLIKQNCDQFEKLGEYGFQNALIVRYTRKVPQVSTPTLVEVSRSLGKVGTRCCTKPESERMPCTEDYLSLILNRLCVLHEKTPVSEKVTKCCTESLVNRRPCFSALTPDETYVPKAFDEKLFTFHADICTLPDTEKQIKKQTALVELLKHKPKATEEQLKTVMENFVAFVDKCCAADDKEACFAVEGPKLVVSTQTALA

Sequence of Lysozyme C (P00698 19-147): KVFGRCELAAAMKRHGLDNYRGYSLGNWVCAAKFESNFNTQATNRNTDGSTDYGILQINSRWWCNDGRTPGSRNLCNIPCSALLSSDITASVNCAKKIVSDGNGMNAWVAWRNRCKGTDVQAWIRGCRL
Sequence of Cytochrome c (P00004 2-105): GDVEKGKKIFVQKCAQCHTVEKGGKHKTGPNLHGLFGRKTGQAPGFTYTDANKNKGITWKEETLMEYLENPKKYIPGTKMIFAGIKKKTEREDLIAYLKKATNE

Q: With ATAAATTTAAGACATGAAAAAATAAATTTTTATTTTTTTACGTTTTTATT (ssDNA) [oligonucleotide 1, Alexa488] as the binder, how does the Kd (Lysozyme C) read?
A: 0.014 µM

Q: What about the Kd (Chymotrypsin (CTRC)) of the same binder?
A: 1.4 µM

Q: What about the Kd (Cytochrome c) of the same binder?
A: 1.4 µM

Q: What does the source list for ATAAATTTAAGACATGAAAAAATAAATTTTTATTTTTTTACGTTTTTATT (ssDNA)?
A: Kd (Chymotrypsin): 1.4 µM; binding result (BSA): no binding

B1: oligonucleotide 2, Alexa488 (ssDNA)
DNA: CGGTCCTCAGATGTGATTCCATCCTTCTTTTGAGCAAACTACCTGTATAACGTAAGTCCGTGTGTGCGAA
Q: B1 was tested. Which Kd (Lysozyme C) did it give?
A: 0.008 µM

Q: What about the Kd (Chymotrypsin (CTRC)) of the same binder?
A: 3.3 µM

Q: And the Kd (Cytochrome c)?
A: 1.1 µM

B2:  (ssDNA)
DNA: B1 DNA
Q: With B2 as the binder, how does the Kd (Chymotrypsin) read?
A: 3.3 µM

Q: Does B2 bind (BSA)?
A: no binding
